{"source": "the nanobody polyreactivity screen of Harvey et al. (2022)", "data": [{"assay": "yeast display, Sf9 membrane polyspecificity reagent, FACS + sequencing; frameworks hold sequencing errors", "in_short": "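Sorting gates, low and high (top ~1%), were placed on anti-HA fluorescence to track expression and on streptavidin fluorescence to track reagent binding. A clone's polyreactivity label is taken from the gate it came out of. The reagent was 10% biotinylated, detergent-solubilized Sf9 membrane, applied for 1 hour at 4 °C to galactose-induced yeast display cells.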", "values": [{"sequence": "QVQLEESGGGLVQAGGSLRLSCAASGYIFSQYAMGWYRPAPGKERELVASISGSGSSTYYADSVKGRFTISRDNAKNTVYLQMNSLKPADTAVFYCAAEWTWGWYITFDYWGQGTQVTVSS", "polyreactivity (PSR sort gate)": "high polyreactivity"}, {"sequence": "QVQLEESGGGLVQAGGSLRLSCAASGYNFVYYAMGWYRQAPGKERELDAAITGRGGSTYYADSVKGRFTISRDNAKNTVYLQMNSLKPEDTAVYYCAKKRIGPVKQFGRDYNYWGQGTQVTVSS", "polyreactivity (PSR sort gate)": "high polyreactivity"}, {"sequence": "QVQLEESGGGLVQAGGSLRLSCAASGYTVVLYAMGCDIQAPGKERELVAVISWSGGSTYYADSVKGRFTISRDNAKNTVYLQMNSLKPEDTAVYYCAVSRYYNDYWGQGTQVTVSS", "polyreactivity (PSR sort gate)": "low polyreactivity"}, {"sequence": "QVQLEESGGGLVQAGGSLRLSCAASVSIFFVNAMGWYRQAPGKERELVASISRDGSTNYADSVKGRFTISRDNAKNTVYLQMNSLKPEVTAVYYCNGLSADWYPEEDYWGQGTQVTVSS", "polyreactivity (PSR sort gate)": "low polyreactivity"}, {"sequence": "QVQLEESGGGLVQAGGSLRLSCAGSGRNFGVNTMRWYRQATGKERDLVAAISFSGVSTYYADSVKGRFTISRDNAKNTVYLQMNSLKPEDTPVYYCAAVPYRQYPCGGYWGQGTQVTVSS", "polyreactivity (PSR sort gate)": "low polyreactivity"}, {"sequence": "QVQLEESGGGLVQAGGSLRLSCDASGRTFDTNAMGWYIQAPGKERELVAVITARGGNTSYADSVKGRFTISRDNSKNTVYLQMNSLKPEDTAVYYCAAPADDTVHYQNYYWGQGTQVTVSS", "polyreactivity (PSR sort gate)": "low polyreactivity"}, {"sequence": "QVQLEESGGGLVQAGGSLRLSCPASGYTFESNAMGWSRQAPRKERELVAAINGGGGTYYADSVKGRFTISRDNGKNTVYLQMNSLKPEDTAVNVDIGFAYVPNYDYWGQGTQVTVSS", "polyreactivity (PSR sort gate)": "low polyreactivity"}, {"sequence": "QVQLEESGGGLVQAGGSLRLSSAASGFIYVYAMGWYRQAPGKVRELVAAITATGDSTYYADSVKGRFTISRDNAKNTVYLQMNSLKPEDTAVYYCARNVNAQKVLGGFDSWGQGTQVNVSS", "polyreactivity (PSR sort gate)": "low polyreactivity"}, {"sequence": "QVQLEESGGGLVQAGGSLRLSSAASGRTFYDNTMGWYRQSPVKERELVAAISRGGSTYADSVKGRFTISRDNAKNSVYLQMNSLKPEDTAVYYCAAVPRYQYGYWGQGTQVTVSS", "polyreactivity (PSR sort gate)": "low polyreactivity"}, {"sequence": "QVQLEESGGGLVQAGGSLRLSSPASGFIFRYYAMGWYRQAPGKERELVAAISGRGGSTYYADSVKGRFTISRDNAKNTVYLQMNSLKPEDTAVYYCAVDVPSQGGDYWGQGTQVTVSS", "polyreactivity (PSR sort gate)": "high polyreactivity"}, {"sequence": "QVQLEESGGGLVQAGGSLRLTCAASGRIFHSNDMGWNRQAPGKERELVAAITKVGGTNYADSVKGRFTISRDNAKNTVSLQMNSLKPEDTAVYYCAAAFYLYSPISGVYLSYSEYDYWGQGSQVTVSS", "polyreactivity (PSR sort gate)": "high polyreactivity"}, {"sequence": "QVQLEESGGGLVQAGGSLRLTCAASGRTIVYNAMGWYRQAPGKERELVAAIDGGTGSTYYADSVKGRFTISRDNAKNTVYLEMNCLKPEDTAVYYCAVETYGGGYPVTYDYWGQGTQVTVSS", "polyreactivity (PSR sort gate)": "low polyreactivity"}, {"sequence": "QVQLEESGGGLVQAGGSLRLTCAASGSTSQIYAMGWYRQAPGKERELVAAINGVGSTNYADSVKGRFTISRDNAKNTVYLQMNSLKPEDTAVYYCAADGTALHEYLGDYDYWGQGTQVTVSS", "polyreactivity (PSR sort gate)": "low polyreactivity"}, {"sequence": "QVQLEESGGGLVQAGGSLRLTCAGSGSIFDGNSMGWDRQAPGKEMELVASISWSGGTTYYADSVKGRFTISRDNATNTVYLQMNSLIPEDTAVYYCNKAGGYRRYSFWSGDYWAGLDFLGQGTQVTVSS", "polyreactivity (PSR sort gate)": "low polyreactivity"}, {"sequence": "QVQLEESGGGLVQAGGSLRLTCAGSGSISYRYDMGWYRQATGKEMELVAVITGSGGSTYYADSVKGRFTISRDNAKNTVYLQMNSLKPEDTAVYYCANEPGENWTVSWRDFDFWGQGTQVTVSS", "polyreactivity (PSR sort gate)": "low polyreactivity"}, {"sequence": "QVQLEESGGGLVQAGGSLRVSCAASGRTSEIYTLGGYRTAPGKERELVASINTNYADSGKGRFTISRDIAKNTVYLQLISLKPDDTAVYYCNADDTIEFNYWGQGTQVTVSW", "polyreactivity (PSR sort gate)": "low polyreactivity"}, {"sequence": "QVQLEESGGGLVQAGGSLRVSCAASGSILIPNAMGWYRQAPGKERELVASISKSGGSTYYADSVKGRFTISRDTAKNTVYLQMNSLKPEDTAVYYCAAAFVSVRKRYGYWGQGTQVTVSS", "polyreactivity (PSR sort gate)": "high polyreactivity"}, {"sequence": "QVQLEESGGGLVQAGGSLSLSCAASGSNFVYNAMGWYRQAPGKERELVAVINSGGSTNYADSVKGRFTISRDNAKNTVYIQKNSRKPEDTAVYYCAADRLAVHYYSWYNYWGQGTQVTVSS", "polyreactivity (PSR sort gate)": "low polyreactivity"}, {"sequence": "QVQLEESGGGLVQAGRSLRLSCAASGRTFIRNAMGRYRHAPGQQRELVAAISSRGGRTYYADSVKGRFTISRDNAKTTVSLEMNSLKPEDTAVYYCAADFTYKLDGYDYWGQGSQVTVSS", "polyreactivity (PSR sort gate)": "high polyreactivity"}, {"sequence": "QVQLEESGGGLVQARVSLRLSSAASGFTLWNYAMGLYRQAPGKERELVAGINSGGRTYYADSVKGRFTISRDNAKNTVYLQMKSLKPEDTAVFYCNARGWSSFSHNSYFMDYWGQGTQVTVSS", "polyreactivity (PSR sort gate)": "high polyreactivity"}, {"sequence": "QVQLEESGGGLVQEGGSLRLSSAASGFTFGKYAMGSYRQAPGKEMEFVASISSSGARTYYADSVKGRFTISRDNAKNTVYLQKNSLKPEDTAVYYCAAAYGRYYYTYDYWGQGTQVTVSS", "polyreactivity (PSR sort gate)": "high polyreactivity"}, {"sequence": "QVQLEESGGGSVQAGGSLRISCAASGFTFFSYTMGWYRQAPGKERELVAAISKRGSRTYYADSVKGRFTISRDHAKNTVDLQMNSLKPEDTAVYYCAADAGPEVVHRREDYWGQVTQVTVSS", "polyreactivity (PSR sort gate)": "high polyreactivity"}, {"sequence": "QVQLEESGGGVVQAGGSLRLSCAASGIIFYRYAMGCYRQAPGKERELVAAISKNGGRTYYADSVKGRFTISRDNAKNTVYLQMNSLKPEDTAVYYCNARYGYYLYWGQGTQVTVSS", "polyreactivity (PSR sort gate)": "high polyreactivity"}, {"sequence": "QVQLEESGGGVVQAGGSLRLTCAASASTSYNMGWYTQAPGKERELVAAISYPGGRTYYADSVKGRFTISRDNAKNTVYLQMTCLKPDDTGVYYCAKRIFVTFDSWGQGTQVTVSS", "polyreactivity (PSR sort gate)": "low polyreactivity"}, {"sequence": "QVQLEESGGRLVQAGGSLRLSCAASGRTFYVYALGWYRQAPGKEREFVAAISGSGGSTFYADSVKGRFTISRDNPKNTVYLQMNSLKPEDTAVYYCATGGSYLYYLKFGHLSAFDYWGQGTQVTVSS", "polyreactivity (PSR sort gate)": "low polyreactivity"}, {"sequence": "QVQLEESGGRLVQAGGSLRLSCAASGSTFQTYAMGWYRQAPGKERELVAAITWRGGSTYYADSVKGRFTISRDNAKNTVYLQMNSLKPEDTAVYYCAAKWHGAHDHRAAYESWGQGTQVTVSS", "polyreactivity (PSR sort gate)": "low polyreactivity"}, {"sequence": "QVQLEESGGSIVQAGGSLRLSCAASGYTFLGNAMGWYRKAPGKERELVAAISSGGTTFYADSVMGRFTISRDNAKNTVYLQMNSLNPEDTAVYYCAAKDTTVFYYDDDYWGQGTQVTVSS", "polyreactivity (PSR sort gate)": "low polyreactivity"}, {"sequence": "QVQLEESGRGLVQAGGSLRLSCAASGNTLGYNAMGWYRQAPGKVRELVATFRGSGGITYYADSVKGRFTISRDNALNTVYLQMNSLKPEDTAVYYCANVYKSRVKGDHWGQGTQVTVSS", "polyreactivity (PSR sort gate)": "low polyreactivity"}, {"sequence": "QVQLEESGRGLVQAGGSLRLSCAASGSIFIVYAIGWYRQAPGKERELVAAINDGGSTSYADSVKGRFTISRDNAKNTVYLQMNSLKPEDTAVYFCAAETYLGNDYWEDYYWGQGTQVTVSS", "polyreactivity (PSR sort gate)": "low polyreactivity"}, {"sequence": "QVQLEESGVGLVQAGGSLRLICAASGITLFHYVMGWYRQAPGKERELVAVISSSGGSTYYADSVKGRFTISRDNAKNTVYLQMNSLKPEDTAVYYCAAETDSRKARVLYDCWGQGTQVTVSS", "polyreactivity (PSR sort gate)": "high polyreactivity"}, {"sequence": "QVQLEESGVGLVQAGGSLRLSCAASGSIFYYNAMGSYRQPHGKERDLVAAISWGDGITYYADSVKGRFTISRDNGKNSVYLPMNSLKPEDTAVYYWAVDYYYLPYEYWGKGTQVTVSS", "polyreactivity (PSR sort gate)": "high polyreactivity"}, {"sequence": "QVQLEESPGGLVQAGGSLRLSCAASGRIIGRYAMGWTRQAPGKERELVAAISYRGGSTYYADSVKGRFTISRDNAKNTVYLQMNSLKPEDTAVYYCAKDSRSWPFKYDYWGQGTQVTVSS", "polyreactivity (PSR sort gate)": "high polyreactivity"}]}]}
